Experimental data reported in patent US20230114801A1 (SYSTIMMUNE, published 2023).

Tests used:
Assay in all cases: BLI (Octet), binder on AHC sensor, 100 nM human antigen, 1:1 fit
[1] = biological target: T1, human 4-1BB (human, UniProt Q07011 24-186, limits assumed)
T1 construct: Soluble antigen in Octet; construct not described

[2] = biological target: T2, human EGFR (human, UniProt P00533 25-645, limits assumed)
T2 construct: Soluble antigen in Octet; construct not described

[3] = biological target: T3, human CD3 (human, UniProt P07766 23-126; P04234 22-105)
T3 construct: also called His-tagged human CD3; human CD3 (Acro CDD-H52W1)

[4] = biological target: T4, human HER3 (human, UniProt P21860 20-643)
T4 construct: Soluble antigen in Octet; bought; also called human HER3 (Acro ER3-H5223)

[5] = biological target: T5, human PD-L1 (human, UniProt Q9NZQ7 19-238)
T5 construct: Soluble antigen in Octet; bought; also called human PD-L1 (Acro PD1-H5229)

B1: SI-75E1 (other)
chain 1: EIVLTQSPSTLSVSPGERATFSCRASQSIGTNIHWYQQKPGKPPRLLIKYASESISGIPDRFSGSGSGTEFTLTISSVQSEDFAVYYCQQNNNWPTTFGPGTKLTVLGGGGSGGGGSGGGGSGGGGSQVQLQQSGPGLVKPSETLSITCTVSGFSLTNYGVHWIRQAPGKGLEWLGVIWSGGNTDYNTPFTSRFTITKDNSKNQVYFKLRSVRADDTAIYYCARALTYYDYEFAYWGQGTLVTVSSGGGGSGGGGSEVQLVESGGGLVQPGGSLRLSCAASGFTISTNAMSWVRQAPGKGLEWIGVITGRDITYYASWAKGRFTISRDNSKNTLYLQMNSLRAEDTAVYYCARDGGSSAITSNNIWGQGTLVTVSSASTKGPSVFPLAPSSKSTSGGTAALGCLVKDYFPEPVTVSWNSGALTSGVHTFPAVLQSSGLYSLSSVVTVPSSSLGTQTYICNVNHKPSNTKVDKRVEPKSCDKTHTCPPCPAPEAAGGPSVFLFPPKPKDTLMISRTPEVTCVVVDVSHEDPEVKFNWYVDGVEVHNAKTKPREEQYNSTYRVVSVLTVLHQDWLNGKEYKCAVSNKALPAPIEKTISKAKGQPREPQVYTLPPSRDELTKNQVSLSCAVKGFYPSDIAVEWESNGQPENNYKTTPPVLDSDGSFFLVSKLTVDKSRWQQGNVFSCSVMHEALHNHYTQKSLSLSPGGGGGSGGGGSDVVMTQSPSSVSASVGDRVTITCQASQNIRTYLSWYQQKPGKAPKLLIYAAANLASGVPSRFSGSGSGTDFTLTISDLEPGDAATYYCQSTYLGTDYVGGAFGGGTKLTVLGGGGSGGGGSGGGGSGGGGSEVQLVESGGGLVQPGGSLRLSCTASGFTISSYHMQWVRQAPGKGLEYIGTISSGGNVYYASSARGRFTISRPSSKNTVDLQMNSLRAEDTAVYYCARDSGYSDPMWGQGTLVTVSS
chain 2: QSALTQPASVSGSPGQSITISCTGTSSDVGGYNFVSWYQQHPGKAPKLMIYDVSDRPSGVSDRFSGSKSGNTASLIISGLQADDEADYYCSSYGSSSTHVIFGGGTKVTVLGGGGSGGGGSGGGGSGGGGSQVQLQESGGGLVKPGGSLSLSCAASGFTFSSYWMSWVRQAPGKGLEWVANINRDGSASYYVDSVKGRFTISRDDAKNSLYLQMNSLRAEDTAVYYCARDRGVGYFDLWGRGTLVTVSSGGGGSGGGGSDVVMTQSPSTLSASVGDRVTINCQASESISSWLAWYQQKPGKAPKLLIYEASKLASGVPSRFSGSGSGTEFTLTISSLQPDDFATYYCQGYFYFISRTYVNSFGGGTKVEIKRTVAAPSVFIFPPSDEQLKSGTASVVCLLNNFYPREAKVQWKVDNALQSGNSQESVTEQDSKDSTYSLSSTLTLSKADYEKHKVYACEVTHQGLSSPVTKSFNRGECGGDKTHTCPPCPAPEAAGGPSVFLFPPKPKDTLMISRTPEVTCVVVDVSHEDPEVKFNWYVDGVEVHNAKTKPREEQYNSTYRVVSVLTVLHQDWLNGKEYKCAVSNKALPAPIEKTISKAKGQPREPQVYTLPPSRDELTKNQVSLWCLVKGFYPSDIAVEWESNGQPENNYKTTPPVLDSDGSFFLYSKLTVDKSRWQQGNVFSCSVMHEALHNRFTQKSLSLSPG
notes: tetra-miniGNC; D1 αEGFR, D2 αHER3, D3 αCD3 (Fab), D4 α4-1BB
Kd [1]: 17.8 nM | Kd [2]: 8.9 nM | Kd [3]: 20.3 nM | Kd [4]: 185 nM

B2: SI-75P6 (other)
chain 1: DVVMTQSPSTLSASVGDRVTINCQASESISSWLAWYQQKPGKAPKLLIYEASKLASGVPSRFSGSGSGTEFTLTISSLQPDDFATYYCQGYFYFISRTYVNSFGGGTKVEIKGGGGSGGGGSGGGGSGGGGSEVQLVESGGGLVQPGGSLRLSCAASGFTISTNAMSWVRQAPGKGLEWIGVITGRDITYYASWAKGRFTISRDNSKNTLYLQMNSLRAEDTAVYYCARDGGSSAITSNNIWGQGTLVTVSSGGGGSGGGGSQVQLQQSGPGLVKPSETLSITCTVSGFSLTNYGVHWIRQAPGKGLEWLGVIWSGGNTDYNTPFTSRFTITKDNSKNQVYFKLRSVRADDTAIYYCARALTYYDYEFAYWGQGTLVTVSSASTKGPSVFPLAPSSKSTSGGTAALGCLVKDYFPEPVTVSWNSGALTSGVHTFPAVLQSSGLYSLSSVVTVPSSSLGTQTYICNVNHKPSNTKVDKRVEPKSCDKTHTCPPCPAPEAAGGPSVFLFPPKPKDTLMISRTPEVTCVVVDVSHEDPEVKFNWYVDGVEVHNAKTKPREEQYNSTYRVVSVLTVLHQDWLNGKEYKCAVSNKALPAPIEKTISKAKGQPREPQVYTLPPSRDELTKNQVSLSCAVKGFYPSDIAVEWESNGQPENNYKTTPPVLDSDGSFFLVSKLTVDKSRWQQGNVFSCSVMHEALHNHYTQKSLSLSPGGGGGSGGGGSDVVMTQSPSSVSASVGDRVTITCQASQNIRTYLSWYQQKPGKAPKLLIYAAANLASGVPSRFSGSGSGTDFTLTISDLEPGDAATYYCQSTYLGTDYVGGAFGGGTKLTVLGGGGSGGGGSGGGGSGGGGSEVQLVESGGGLVQPGGSLRLSCTASGFTISSYHMQWVRQAPGKGLEYIGTISSGGNVYYASSARGRFTISRPSSKNTVDLQMNSLRAEDTAVYYCARDSGYSDPMWGQGTLVTVSS
chain 2: QSALTQPASVSGSPGQSITISCTGTSSDVGGYNFVSWYQQHPGKAPKLMIYDVSDRPSGVSDRFSGSKSGNTASLIISGLQADDEADYYCSSYGSSSTHVIFGGGTKVTVLGGGGSGGGGSGGGGSGGGGSQVQLQESGGGLVKPGGSLSLSCAASGFTFSSYWMSWVRQAPGKGLEWVANINRDGSASYYVDSVKGRFTISRDDAKNSLYLQMNSLRAEDTAVYYCARDRGVGYFDLWGRGTLVTVSSGGGGSGGGGSEIVLTQSPSTLSVSPGERATFSCRASQSIGTNIHWYQQKPGKPPRLLIKYASESISGIPDRFSGSGSGTEFTLTISSVQSEDFAVYYCQQNNNWPTTFGPGTKLTVLRTVAAPSVFIFPPSDEQLKSGTASVVCLLNNFYPREAKVQWKVDNALQSGNSQESVTEQDSKDSTYSLSSTLTLSKADYEKHKVYACEVTHQGLSSPVTKSFNRGECGGDKTHTCPPCPAPEAAGGPSVFLFPPKPKDTLMISRTPEVTCVVVDVSHEDPEVKFNWYVDGVEVHNAKTKPREEQYNSTYRVVSVLTVLHQDWLNGKEYKCAVSNKALPAPIEKTISKAKGQPREPQVYTLPPSRDELTKNQVSLWCLVKGFYPSDIAVEWESNGQPENNYKTTPPVLDSDGSFFLYSKLTVDKSRWQQGNVFSCSVMHEALHNRFTQKSLSLSPGGGGGSGGGGSDIQMTQSPSTLSASVGDRVTITCQASQSISSHLNWYQQKPGKAPKLLIYKASTLASGVPSRFSGSGSGTEFTLTISSLQPDDFATYYCQQGYSWGNVDNVFGGGTKVTVLGGGGSGGGGSGGGGSGGGGSEVQLLESGGGLVQPGGSLSLSCAASGFSFSSGYDMCWVRQAPGKGLEWIACIAAGSAGITYDANWAKGRFTISRDNSKNTLYLQMNSLRAEDTAVYYCARSAFSFDYAMDLWGQGTLVTVSS
notes: penta-miniGNC, IgG1 knobs-into-holes heterodimer; D1 αCD3, D2 αHER3, D3 αEGFR (Fab), D4 α4-1BB, D5 αPD-L1; also called penta-miniGNC (SI-75P6)
Kd [5]: 1.45 nM | Kd [1]: 37.3 nM | Kd [2]: 5.56 nM | Kd [3]: 36.2 nM

B3: SI-75E2 (other)
chain 1: EIVLTQSPSTLSVSPGERATFSCRASQSIGTNIHWYQQKPGKPPRLLIKYASESISGIPDRFSGSGSGTEFTLTISSVQSEDFAVYYCQQNNNWPTTFGPGTKLTVLGGGGSGGGGSGGGGSGGGGSQVQLQQSGPGLVKPSETLSITCTVSGFSLTNYGVHWIRQAPGKGLEWLGVIWSGGNTDYNTPFTSRFTITKDNSKNQVYFKLRSVRADDTAIYYCARALTYYDYEFAYWGQGTLVTVSSGGGGSGGGGSEVQLVESGGGLVQPGGSLRLSCAASGFTISTNAMSWVRQAPGKGLEWIGVITGRDITYYASWAKGRFTISRDNSKNTLYLQMNSLRAEDTAVYYCARDGGSSAITSNNIWGQGTLVTVSSASTKGPSVFPLAPSSKSTSGGTAALGCLVKDYFPEPVTVSWNSGALTSGVHTFPAVLQSSGLYSLSSVVTVPSSSLGTQTYICNVNHKPSNTKVDKRVEPKSCDKTHTCPPCPAPEAAGGPSVFLFPPKPKDTLMISRTPEVTCVVVDVSHEDPEVKFNWYVDGVEVHNAKTKPREEQYNSTYRVVSVLTVLHQDWLNGKEYKCAVSNKALPAPIEKTISKAKGQPREPQVYTLPPSRDELTKNQVSLSCAVKGFYPSDIAVEWESNGQPENNYKTTPPVLDSDGSFFLVSKLTVDKSRWQQGNVFSCSVMHEALHNHYTQKSLSLSPG
chain 2: QSALTQPASVSGSPGQSITISCTGTSSDVGGYNFVSWYQQHPGKAPKLMIYDVSDRPSGVSDRFSGSKSGNTASLIISGLQADDEADYYCSSYGSSSTHVIFGGGTKVTVLGGGGSGGGGSGGGGSGGGGSQVQLQESGGGLVKPGGSLSLSCAASGFTFSSYWMSWVRQAPGKGLEWVANINRDGSASYYVDSVKGRFTISRDDAKNSLYLQMNSLRAEDTAVYYCARDRGVGYFDLWGRGTLVTVSSGGGGSGGGGSDVVMTQSPSTLSASVGDRVTINCQASESISSWLAWYQQKPGKAPKLLIYEASKLASGVPSRFSGSGSGTEFTLTISSLQPDDFATYYCQGYFYFISRTYVNSFGGGTKVEIKRTVAAPSVFIFPPSDEQLKSGTASVVCLLNNFYPREAKVQWKVDNALQSGNSQESVTEQDSKDSTYSLSSTLTLSKADYEKHKVYACEVTHQGLSSPVTKSFNRGECGGDKTHTCPPCPAPEAAGGPSVFLFPPKPKDTLMISRTPEVTCVVVDVSHEDPEVKFNWYVDGVEVHNAKTKPREEQYNSTYRVVSVLTVLHQDWLNGKEYKCAVSNKALPAPIEKTISKAKGQPREPQVYTLPPSRDELTKNQVSLWCLVKGFYPSDIAVEWESNGQPENNYKTTPPVLDSDGSFFLYSKLTVDKSRWQQGNVFSCSVMHEALHNRFTQKSLSLSPGGGGGSGGGGSDIQMTQSPSTLSASVGDRVTITCQASQSISSHLNWYQQKPGKAPKLLIYKASTLASGVPSRFSGSGSGTEFTLTISSLQPDDFATYYCQQGYSWGNVDNVFGGGTKVTVLGGGGSGGGGSGGGGSGGGGSEVQLLESGGGLVQPGGSLSLSCAASGFSFSSGYDMCWVRQAPGKGLEWIACIAAGSAGITYDANWAKGRFTISRDNSKNTLYLQMNSLRAEDTAVYYCARSAFSFDYAMDLWGQGTLVTVSS
notes: tetra-miniGNC; D1 αEGFR, D2 αHER3, D3 αCD3 (Fab), D5 αPD-L1; also called tetra-miniGNC (SI-75E2)
Kd [5]: 1.36 nM | Kd [2]: 8.24 nM | Kd [3]: 22.1 nM | Kd [4]: 114 nM
